Entries after “also recorded” stand apart in the source; their conditions may differ.

For one data set the following is noted: glycan changed form.
Consider “SARS-CoV-2 spike, B.1.617.2 (Delta): GnTI- cells”, for which the “other: proteolytic processing” value is listed as “no change” and the “other: pseudovirus infectivity” value is given as “decreases”. “SARS-CoV-2 spike, BA.1 (Omicron): 20 μM swainsonine”: the “other: neutralisation sensitivity, other: maximum % neutralisation” value (from here on “other … maximum % neutralisation”) was “no change, 74 ± 7 vs 54 ± 7”; the “other: proteolytic processing” value is “no change”; the “other: pseudovirus infectivity, fold_change” value (“other … fold_change” below) is listed as “no change”. Turning to “SARS-CoV-2 spike, B.1.617.2 (Delta): 50 μM kifunensine”, the “other: proteolytic processing” value is reported as “no change” and the “other: pseudovirus infectivity” value is “decreases”.

Turning to “SARS-CoV-2 spike, D614G: 20 μM swainsonine”, the “other: pseudovirus infectivity” value is on record as “no change”.

Still in this data set, the particulars now being: glycan lost.
Regarding SARS-CoV-2 spike, BA.1 (Omicron): N603Q, the “other: neutralisation sensitivity” value is recorded as “no change”. Turning to SARS-CoV-2 spike, D614G: N122Q, the “other: neutralisation sensitivity” value is listed as “no change”; the “other … maximum % neutralisation” value is “no change, 62 ± 9 vs 64 ± 4; also recorded: decreases, 29 ± 4 vs 65 ± 7”; the “other … fold_change” value is “decreases”. As for “SARS-CoV-2 spike, BA.1 (Omicron): N1194Q”, the “other: neutralisation sensitivity” value is “no change” and the “other … maximum % neutralisation” value is recorded as “no change, 75 ± 11 vs 79 ± 7”. As to SARS-CoV-2 spike, D614G: N709Q, the “other: neutralisation sensitivity” value is recorded as “no change” and the “other … maximum % neutralisation” value is on record as “no change, 69 ± 6 vs 64 ± 4”. As to SARS-CoV-2 spike, D614G: N331Q, the “other: neutralisation sensitivity” value is “no change” and the “other … maximum % neutralisation” value was “no change, 60 ± 4 vs 64 ± 4”. In the case of “SARS-CoV-2 spike, B.1.617.2 (Delta): N717Q”, the “other: pseudovirus infectivity” value is recorded as “no change”.

With SARS-CoV-2 spike, BA.1 (Omicron): N343Q, the “other: neutralisation sensitivity” value is recorded as “no change” and the “other … maximum % neutralisation” value is given as “no change, 82 ± 6 vs 79 ± 7”. SARS-CoV-2 spike, BA.1 (Omicron): N616Q: the “other: neutralisation sensitivity” value is “no change”.

With SARS-CoV-2 spike, D614G: N1194Q, the “other: neutralisation sensitivity” value is “no change” and the “other … maximum % neutralisation” value is “no change, 66 ± 3 vs 64 ± 4; also recorded: no change, 60 ± 3 vs 65 ± 7”. As to SARS-CoV-2 spike, D614G: N1134Q, the “other: neutralisation sensitivity” value is on record as “no change” and the “other … maximum % neutralisation” value is given as “no change, 65 ± 5 vs 64 ± 4; also recorded: no change, 65 ± 4 vs 65 ± 7”. In the case of SARS-CoV-2 spike, BA.1 (Omicron): N61Q, the “other: neutralisation sensitivity” value is “no change” and the “other … maximum % neutralisation” value was “no change, 73 ± 10 vs 79 ± 7”.

In the case of SARS-CoV-2 spike, D614G: N717Q, the “other: neutralisation sensitivity” value is on record as “no change”; the “other … maximum % neutralisation” value was “no change, 67 ± 9 vs 64 ± 4; also recorded: decreases, 43 ± 6 vs 65 ± 7”; the “other … fold_change” value is “decreases”.

For SARS-CoV-2 spike, BA.1 (Omicron): N657Q, the “other: neutralisation sensitivity” value is recorded as “no change”. For the substance “SARS-CoV-2 spike, BQ.1.1 (Omicron): N717Q”, the “other … fold_change” value is “abolishes”.

In the case of SARS-CoV-2 spike, D614G: N149Q, the “other: neutralisation sensitivity” value is recorded as “no change”. The same measure, in the same setting: the result for SARS-CoV-2 spike, BA.1 (Omicron): N17Q reads “no change”. Take SARS-CoV-2 spike, D614G: N61Q: the “other: neutralisation sensitivity” value was “no change”; the “other … maximum % neutralisation” value is given as “no change, 61 ± 4 vs 64 ± 4”; the “other: proteolytic processing” value is listed as “decreases”; the “other … fold_change” value is recorded as “decreases”. Take SARS-CoV-2 spike, D614G: N1098Q: the “other: neutralisation sensitivity” value was “no change” and the “other … maximum % neutralisation” value is listed as “no change, 69 ± 11 vs 64 ± 4”. As for “SARS-CoV-2 spike, BA.1 (Omicron): N1098Q”, the “other: neutralisation sensitivity” value is “no change”; the “other … maximum % neutralisation” value was “no change, 85 ± 7 vs 79 ± 7”; the “other: pseudovirus particle yield (p24)” value is “decreases”.

Consider SARS-CoV-2 spike, BA.1 (Omicron): N709Q, for which the “other: neutralisation sensitivity” value is “no change”.

For the substance SARS-CoV-2 spike, BA.1 (Omicron): N801Q, the “other: proteolytic processing” value is given as “decreases”. As to SARS-CoV-2 spike, BA.1 (Omicron): N717A, the “other … fold_change” value was “decreases”. Consider SARS-CoV-2 spike, BA.1 (Omicron): N282Q, for which the “other: neutralisation sensitivity” value was “no change”. As for “SARS-CoV-2 spike, BA.1 (Omicron): N1158Q”, the “other: neutralisation sensitivity” value was “no change” and the “other … maximum % neutralisation” value is “no change, 86 ± 34 vs 79 ± 7”. Consider SARS-CoV-2 spike, D614G: N603Q, for which the “other: neutralisation sensitivity” value is given as “no change” and the “other … maximum % neutralisation” value is recorded as “no change, 62 ± 3 vs 64 ± 4”. In the case of SARS-CoV-2 spike, BA.1 (Omicron): N165Q, the “other: neutralisation sensitivity” value is reported as “no change” and the “other … maximum % neutralisation” value was “no change, 79 ± 7 vs 79 ± 7”. For the substance “SARS-CoV-2 spike, B.1.617.2 (Delta): N801Q”, the “other: pseudovirus infectivity” value was “no change”. For the substance SARS-CoV-2 spike, BA.4 (Omicron): N717Q, the “other … fold_change” value is given as “abolishes”. Take SARS-CoV-2 spike, BA.1 (Omicron): N74Q: the “other: neutralisation sensitivity” value was “no change” and the “other … maximum % neutralisation” value is given as “no change, 77 ± 9 vs 79 ± 7”. As for SARS-CoV-2 spike, D614G: N17Q, the “other: neutralisation sensitivity” value is recorded as “no change”. Take SARS-CoV-2 spike, D614G: N1074Q: the “other: neutralisation sensitivity” value was “no change”; the “other … maximum % neutralisation” value is “no change, 61 ± 4 vs 64 ± 4; also recorded: decreases, 45 ± 6 vs 65 ± 7”; the “other … fold_change” value is “decreases”. As for SARS-CoV-2 spike, D614G: N801Q, the “other: neutralisation sensitivity” value was “no change”; the “other … maximum % neutralisation” value was “no change, 63 ± 4 vs 64 ± 4; also recorded: no change, 74 ± 7 vs 65 ± 7”; the “other … fold_change” value is listed as “decreases”. As to SARS-CoV-2 spike, D614G: N1158Q, the “other: neutralisation sensitivity” value is “no change” and the “other … maximum % neutralisation” value is given as “no change, 63 ± 3 vs 64 ± 4”.

For “SARS-CoV-2 spike, BA.1 (Omicron): N1134Q”, the “other: neutralisation sensitivity” value is listed as “no change” and the “other … maximum % neutralisation” value is reported as “no change, 73 ± 15 vs 79 ± 7”.

Regarding SARS-CoV-2 spike, D614G: N1173Q, the “other: neutralisation sensitivity” value is on record as “no change” and the “other … maximum % neutralisation” value is on record as “no change, 73 ± 14 vs 64 ± 4; also recorded: decreases, 50 ± 5 vs 65 ± 7”. Regarding SARS-CoV-2 spike, D614G: N165Q, the “other: neutralisation sensitivity” value is on record as “no change”.

The values above are taken from paper PMC10662749.
